# The supplement of paper PMC7877785
# ± gives the uncertainty stated by the source.
# Assay: self-splicing fitness, log relative to wild type (ln ratio); higher = more splicing; Tetrahymena group I intron in knt gene, E. coli kanamycin selection, DiMSum; sequences stand for … in CUCUCU…GGAGGGAAAAGUUAUCAGGCAUGCACCUGGUAGCUAGUCUUUAAACCAAUAGAUUGCAUCGGUUUAAAAGGCAAGACCGUCAAAUUGCGGGAAAGGGGUCAACAGCCGUUCAGUACCAAGUCUCAGGGGAAACUUUGAGAUGGCCUUGCAAAGGGUAUGGUAAUAAGCUGACGGACAUGGUCCUAACCACGCAGCCAAGUCCUAAGUCAACAGAUCUUCUGUUGAUAUGGAUGCAGUUCACAGACUAAAUGUCGGUCGGGGAAGAUGUAUUCUUCUCAUAAGAUAUAGUCGGACCUCUCCUUAAUGGGAGCUAGCGGAUGAAGUGAUGCAACACUGGAGCCGCUGGGAACUAAUUUGUAUGCGAAAGUAUAUUGAUUAGUUUUGGAGUACUCGUGGUCG
# Summary of the method: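 Colonies from six replicate transformations of E. coli BL21(DE3) were pooled and amplicon-sequenced on an Illumina HiSeq 2500. The library placed an intron with all eight P1ex-region nucleotides randomised inside the knt kanamycin-resistance gene on pET-22b(+), and cells grew overnight at 37°C or 30°C on LB agar with or without 25 μg/mL kanamycin (plus 100 μg/mL carbenicillin, 50 μM IPTG, 0.2% rhamnose). Fitness is the DiMSum error-weighted combination of wild-type-normalised replicate fold changes, kanamycin versus none.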
Sequence,self-splicing fitness (ln) (30 °C),self-splicing fitness (ln) (37 °C)
ACACAGCAAUAUUACGUUCU,-0.986 ± 0.06,-0.532 ± 0.068
AUUCAGCAAUAUUACGCAAG,-1.26 ± 0.098,-0.884 ± 0.13
ACGAAGCAAUAUUACGUCCC,-1.28 ± 0.13,-1.07 ± 0.16
GGGAAGCAAUAUUACGGUAC,-1.47 ± 0.25,-1.08 ± 0.27
UGGUAGCAAUAUUACGCAAU,-2.59 ± 0.24,-2.56 ± 0.33
UCGAAGCAAUAUUACGAAAG,-3.24 ± 0.23,-2.47 ± 0.44
GGAUAGCAAUAUUACGCGAA,-1.69 ± 0.29,-1.41 ± 0.42
GGAAAGCAAUAUUACGAGUU,-1.86 ± 0.1,-1.08 ± 0.12
AUGUAGCAAUAUUACGAGAG,-4.62 ± 0.39,-2.71 ± 0.22
AAGCAGCAAUAUUACGGGGA,-3.53 ± 0.33,-1.11 ± 0.13
UUGUAGCAAUAUUACGCGUC,-3.51 ± 0.42,-0.917 ± 0.26
UCGAAGCAAUAUUACGUUGA,-2.05 ± 0.099,-2.63 ± 0.13
CGGAAGCAAUAUUACGCCCC,-1.49 ± 0.39,
UACCAGCAAUAUUACGAGUC,-1.59 ± 0.12,-1.24 ± 0.12
UUGAAGCAAUAUUACGCGAA,-0.789 ± 0.08,-0.585 ± 0.093
AGUAAGCAAUAUUACGAAGC,-3.12 ± 0.27,-3.5 ± 0.37
GAUUAGCAAUAUUACGGCCC,-0.175 ± 0.083,-0.352 ± 0.12
GUUUAGCAAUAUUACGUACG,-2.01 ± 0.14,-0.33 ± 0.17
GCUUAGCAAUAUUACGUCUG,-2.33 ± 0.16,-1 ± 0.15
GUUUAGCAAUAUUACGAGAG,-3.02 ± 0.17,-2 ± 0.14

Sequence,self-splicing fitness (ln) (30 °C),self-splicing fitness (ln) (37 °C)
GGAAAGCAAUAUUACGGGGG,-3.94 ± 0.26,-1.45 ± 0.21
CUUGAGCAAUAUUACGGAGG,-2.13 ± 0.19,-1.67 ± 0.16
UACGAGCAAUAUUACGCUAU,-2.4 ± 0.14,-3.49 ± 0.29
GCUCAGCAAUAUUACGCUCC,-1.05 ± 0.15,0.283 ± 0.26
GAUUAGCAAUAUUACGGUCG,-1.28 ± 0.11,-0.366 ± 0.13
ACUAAGCAAUAUUACGGUAA,-1.56 ± 0.17,-1.92 ± 0.18
ACCGAGCAAUAUUACGUGUA,-2.2 ± 0.13,-1.49 ± 0.096
AUAUAGCAAUAUUACGGCCG,-1.15 ± 0.2,-0.566 ± 0.25
AGACAGCAAUAUUACGCUGC,-3.72 ± 0.2,-2.64 ± 0.24
UACGAGCAAUAUUACGAAUG,-2.56 ± 0.12,-1.68 ± 0.15
CCUGAGCAAUAUUACGUCAA,-2.73 ± 0.22,-2.36 ± 0.3
CUUGAGCAAUAUUACGGCGC,-3.72 ± 0.43,-1.55 ± 0.41
UGUUAGCAAUAUUACGCGCU,-1.36 ± 0.13,-0.409 ± 0.12
ACAGAGCAAUAUUACGCGAU,-3.54 ± 0.24,-3.29 ± 0.3
UACUAGCAAUAUUACGGUCA,0.103 ± 0.086,0.31 ± 0.083
GGAAAGCAAUAUUACGCCUC,-1.14 ± 0.16,-1.03 ± 0.19
GCAUAGCAAUAUUACGGACG,-1.7 ± 0.088,-0.659 ± 0.12
CUACAGCAAUAUUACGGGUG,-0.249 ± 0.037,-0.538 ± 0.053
UGUCAGCAAUAUUACGGGAC,-4.31 ± 0.23,-2.93 ± 0.34
AAAAAGCAAUAUUACGCGUC,-2.31 ± 0.16,-1.72 ± 0.16

Sequence,self-splicing fitness (ln) (30 °C),self-splicing fitness (ln) (37 °C)
AAGAAGCAAUAUUACGUCGU,-1.31 ± 0.058,-0.567 ± 0.073
CACCAGCAAUAUUACGCACU,-3.96 ± 0.21,-1.59 ± 0.12
AGCAAGCAAUAUUACGGUCU,-0.739 ± 0.069,0.0318 ± 0.085
GUAUAGCAAUAUUACGUAUU,-4.14 ± 0.37,-1.44 ± 0.2
UCUCAGCAAUAUUACGUGAG,-1.2 ± 0.054,-0.483 ± 0.072
GCAAAGCAAUAUUACGGCCC,-0.121 ± 0.18,-0.618 ± 0.27
CACCAGCAAUAUUACGAGUC,-4.09 ± 0.19,-1.74 ± 0.14
UGCUAGCAAUAUUACGAAUC,-3.2 ± 0.15,-3.95 ± 0.29
ACCCAGCAAUAUUACGCAUA,-1.19 ± 0.061,-1.07 ± 0.066
GGACAGCAAUAUUACGAGGG,-3.16 ± 0.14,-2.28 ± 0.15
AGCAAGCAAUAUUACGGUUG,-3.23 ± 0.17,-1.32 ± 0.16
AGAUAGCAAUAUUACGCUUU,-0.847 ± 0.11,-1.2 ± 0.16
AAUUAGCAAUAUUACGAACU,0.296 ± 0.1,0.321 ± 0.14
UUAUAGCAAUAUUACGUUCU,-2.18 ± 0.15,-1.11 ± 0.16
GGAAAGCAAUAUUACGUGAA,-1.96 ± 0.11,-1.45 ± 0.16
UUAAAGCAAUAUUACGGAGG,-1.34 ± 0.12,-1.27 ± 0.17
UGGCAGCAAUAUUACGCCCU,-0.69 ± 0.27,
CGAGAGCAAUAUUACGGUAC,-3.63 ± 0.47,-0.529 ± 0.28
UCACAGCAAUAUUACGUAGU,-3.38 ± 0.12,-2.6 ± 0.17
UGCAAGCAAUAUUACGAUGC,-3.55 ± 0.3,
